From patent US20230013784A1 (JIANGSU HENGRUI MEDICINE, published 2023)

T1: human CEA protein on the cell surface of MKN45 human gastric cancer cells (human, UniProt P06731 35-685)
T1 construct: whole, on cells; GPI-anchored glycoprotein; also called CEACAM-5; CD66e
T1 sequence (looked up): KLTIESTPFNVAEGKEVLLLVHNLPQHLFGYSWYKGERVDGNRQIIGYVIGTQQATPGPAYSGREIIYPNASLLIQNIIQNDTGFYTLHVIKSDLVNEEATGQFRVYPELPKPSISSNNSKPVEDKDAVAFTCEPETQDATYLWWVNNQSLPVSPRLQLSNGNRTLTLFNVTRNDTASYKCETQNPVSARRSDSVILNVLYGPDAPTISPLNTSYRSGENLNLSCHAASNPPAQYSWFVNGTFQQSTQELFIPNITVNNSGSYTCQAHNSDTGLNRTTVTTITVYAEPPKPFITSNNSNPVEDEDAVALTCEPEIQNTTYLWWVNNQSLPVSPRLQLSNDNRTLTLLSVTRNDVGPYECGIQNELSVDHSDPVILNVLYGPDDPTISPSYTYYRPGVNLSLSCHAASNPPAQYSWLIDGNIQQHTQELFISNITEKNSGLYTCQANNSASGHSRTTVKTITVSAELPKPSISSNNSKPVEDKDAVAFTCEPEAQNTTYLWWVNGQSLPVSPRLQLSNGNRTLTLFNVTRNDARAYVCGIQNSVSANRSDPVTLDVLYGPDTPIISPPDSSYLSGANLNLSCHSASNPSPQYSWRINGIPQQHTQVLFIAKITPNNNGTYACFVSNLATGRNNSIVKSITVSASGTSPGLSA

B1: mAb63 (antibody, V domains shown)
VH: EVQLQQSGPELVKPGASVKMSCKASGYTFTDFYMNWVRQSHGKSLEWIGDIFPKNGNTDYNRKFKDKATLTVDKSSNTVYMEFRSLTLEDSAIYFCARSGYGNYVFDYWGQGTIFTVSS
VL: DVQMTQTPSALSASLGDRVTISCRTSQDINIYLNWYQQKPDGTVKLLIYYRSGLLSGVPSRFSGSGSGTDYSLTISNLEPEDIATYFCQQGNTLPPTFGGGTKLEIK
notes: murine hybridoma antibody
B2: mAb103 (antibody, V domains shown)
VH: QIQLVQSGPELKKPGETVKISCKASGYTFTTYGVIWVKQAPGKGLKWMGWINTYSGVPTYADDFKGRFAFSLETSASTAFLQINNLKNEDTATYFCARKKTLTTVTPWFAYWGQGTLVTVSA
VL: DLVVTQSSSASFSLGASAKLTCTLSSQHSTYTIEWYQQQPLKPPKYVMELKKDGSHSTGDGIPDRFSGSSSGADRYLTISNIQPEDEAIYICGVGNTIKEQFVYVFGGGTKVTVL
notes: murine hybridoma antibody
B3: mAb47 (antibody, V domains shown)
VH: QIQLVQSGPELKKPGETVKISCKASGYTFTTYGMSWVKQAPGKGLKWMGWINTYSGVPTYADDFKGRFAFSLETSASTAYLQINNLKNEDTATYFCARRGNYGRWDFDVWGTGTTVTVSS
VL: EIVLTQSPALMAASPGEKVTITCSVSSTISSSNLHWYQQKSETSPKPWIYGTSNLASGVPVRFSGSGSGTSYSLTISSMEAEDAATYYCQQWSIYPLTFGAGTKLELK
notes: murine hybridoma antibody

These binders were tested against T1, human CEA protein on the cell surface … (assay: FACS on MKN45; with/without 5 ug/ml sCEA as competitor).
Protocol: In order to detect whether the antibody preferentially binds to CEA present on the surface of cell membrane in the presence of sCEA (as shown in SEQ ID NO:1), the inventors pre-incubated a gradient of diluted antibodies with a certain concentration of sCEA (5 μg/ml) for 30 min, then MKN45 cells were collected (human gastric cancer cells, Nanjing Kebai Biotechnology Co., Ltd., Cat #CBP60488) and loaded into 96-well plate. The gradient of diluted antibodies as well as the mixture of pre-incubated antibody and sCEA were separately added to each well, incubated at 4° C. for 60 min and centrifuged to remove the supernatant. Pre-cooled PBS containing a final concentration of 10% FBS was added to wash the cells, repeated twice. 50 μl of 1:200 diluted secondary antibody Alexa Fluor@488 goat anti-human IgG (H+L) (Lifetechologies, Cat #A11013) was added, incubated at 4° C. in dark for 45 min and centrifuged to remove the supernatant. 250 μl of pre-cooled PBS containing a final concentration of 10% FBS was added to wash the cells; repeated twice. 100 μl of pre-cooled PBS was added to each well for resuspension. Flow cytometer (FACS) was used for detection to obtain the fluorescence signal value.

Point of comparison: B3, “maximum fluorescence signal ratio (without sCEA v.s. with sCEA)” value 1.08. Against it:
- B1 — higher, 1.43
- B2 — lower, 1.02
